From the Immune Epitope Database (IEDB)
One block for each sequence: values may come before it.

Experiments:
[1] = biological target: HLA-A*02:01; test: IEDB peptide-MHC binding, purified MHC/direct/fluorescence; filed as Kd, often an IC50 or EC50 that approximates it; ≥ and ≤ were set here for values at or beyond the usual limits of such assays
[2] = biological target: HLA-B*08:01; test: as above
[3] = biological target: HLA-B*35:01; test: as above
[4] = biological target: HLA-B*07:02; test: as above
[5] = biological target: HLA-B*15:01; test: as above
[6] = biological target: HLA-B*40:01; test: as above
[7] = biological target: HLA-A*01:01; test: as above
[8] = biological target: HLA-B*58:01; test: as above
[9] = biological target: HLA-A*03:01; test: as above
[10] = biological target: HLA-B*44:02; test: as above
[11] = biological target: HLA-B*27:05; test: as above
[12] = biological target: HLA-A*69:01; test: as above
[13] = biological target: HLA-A*31:01; test: as above
[14] = biological target: HLA-A*26:01; test: as above
[15] = biological target: HLA-A*11:01; test: as above
[16] = biological target: HLA-A*30:01; test: as above
[17] = biological target: HLA-A*23:01; test: IEDB peptide-MHC binding, purified MHC/competitive/fluorescence; filed as Kd, often an IC50 or EC50 that approximates it; ≥ and ≤ were set here for values at or beyond the usual limits of such assays; settings: source organism: Vibrio cholerae 2740-80
[18] = biological target: HLA-A*24:03; test: IEDB peptide-MHC binding, purified MHC/direct/fluorescence; filed as Kd, often an IC50 or EC50 that approximates it; ≥ and ≤ were set here for values at or beyond the usual limits of such assays
[19] = biological target: HLA-C*15:02; test: as above; settings: source organism: Yellow fever virus
[20] = biological target: HLA-B*46:01; test: as above; settings: source organism: Yellow fever virus 17D
[21] = biological target: HLA-C*14:02; test: as above; settings: source organism: Yellow fever virus
[22] = biological target: HLA-B*51:01; test: as above; settings: source organism: Yellow fever virus 17D
[23] = biological target: HLA-A*02:01; test: IEDB peptide-MHC binding, purified MHC/competitive/fluorescence; filed as Kd, often an IC50 or EC50 that approximates it; ≥ and ≤ were set here for values at or beyond the usual limits of such assays
[24] = biological target: HLA-A*02:11; test: as above
[25] = biological target: HLA-A*02:02; test: IEDB peptide-MHC binding, purified MHC/competitive/radioactivity; filed as Kd, often an IC50 or EC50 that approximates it; ≥ and ≤ were set here for values at or beyond the usual limits of such assays; settings: source organism: HIV-1 M:B_ARV2/SF2
[26] = biological target: HLA-A*02:06; test: as above; settings: source organism: HIV-1 M:B_ARV2/SF2
[27] = biological target: HLA-A*02:03; test: as above; settings: source organism: HIV-1 M:B_ARV2/SF2
[28] = biological target: HLA-A*02:19; test: IEDB peptide-MHC binding, purified MHC/competitive/fluorescence; filed as Kd, often an IC50 or EC50 that approximates it; ≥ and ≤ were set here for values at or beyond the usual limits of such assays; settings: source organism: Human immunodeficiency virus type 1 (BH5 ISOLATE)
[29] = biological target: HLA-A*69:01; test: as above; settings: source organism: Human immunodeficiency virus type 1 (BH5 ISOLATE)
[30] = source organism: Salmonella enterica
[31] = source organism: Pseudomonas putida
[32] = source organism: Vibrio vulnificus
[33] = source organism: Giardia lamblia ATCC 50803
[34] = source organism: Orthohantavirus hantanense
[35] = source organism: Aggregatibacter actinomycetemcomitans
[36] = source organism: Human immunodeficiency virus type 1 (BH5 ISOLATE)
[37] = source organism: Vibrio cholerae

Sequence: AHSKAETEA
- Kd [1, 30]: ≥ 20 µM
- Kd [2, 30]: ≥ 20 µM
- Kd ([3]; source organism: Salmonella enterica subsp. enterica serovar Typhimurium): ≥ 20 µM
- Kd [4, 30]: ≥ 20 µM
- Kd [5, 30]: ≥ 20 µM
- Kd [6, 30]: ≥ 20 µM
- Kd [7, 30]: ≥ 20 µM
- Kd [8, 30]: ≥ 20 µM
- Kd [9, 30]: ≥ 20 µM
- Kd [10, 30]: ≥ 20 µM
- Kd [11, 30]: ≥ 20 µM
- Kd [12, 30]: ≥ 20 µM
- Kd [13, 30]: ≥ 20 µM
- Kd [14, 30]: ≥ 20 µM
- Kd [15, 30]: ≥ 20 µM

Sequence: EYVGKTVWF
- Kd ([16]; source organism: West Nile virus SPU116/89): ≥ 20 µM

Sequence: FVQGVIWNI
- Kd [17]: 0.0365 µM

- Kd [3, 31]: 0.171 µM
- Kd [5, 31]: 0.0906 µM
- Kd [7, 31]: 0.67 µM
- Kd [12, 31]: 0.0328 µM
- Kd [13, 31]: 1.15 µM
- Kd [14, 31]: 0.00541 µM
Sequence: HTAEIQQFF

Sequence: QSPQPVRVK
- Kd [1, 32]: ≥ 20 µM
- Kd [2, 32]: ≥ 20 µM
- Kd [18, 32]: ≥ 20 µM
- Kd [4, 32]: ≥ 20 µM
- Kd [5, 32]: ≥ 20 µM
- Kd [6, 32]: ≥ 20 µM
- Kd [7, 32]: ≥ 20 µM
- Kd [8, 32]: ≥ 20 µM
- Kd [9, 32]: 19.3 µM
- Kd [11, 32]: ≥ 20 µM
- Kd [12, 32]: ≥ 20 µM
- Kd [14, 32]: ≥ 20 µM
- Kd [15, 32]: 12.2 µM
- Kd [16, 32]: 3.75 µM

Sequence: QTSTLYDFY
- Kd [1, 33]: ≥ 20 µM
- Kd [2, 33]: ≥ 20 µM
- Kd [18, 33]: ≥ 20 µM
- Kd [3, 33]: 0.0286 µM
- Kd [4, 33]: ≥ 20 µM
- Kd [5, 33]: 1.71 µM
- Kd [6, 33]: ≥ 20 µM
- Kd [7, 33]: 0.0397 µM
- Kd [8, 33]: 3.79 µM
- Kd [9, 33]: ≥ 20 µM
- Kd [10, 33]: ≥ 20 µM
- Kd [11, 33]: ≥ 20 µM
- Kd [12, 33]: ≥ 20 µM
- Kd [13, 33]: ≥ 20 µM
- Kd [14, 33]: ≥ 20 µM
- Kd [15, 33]: ≥ 20 µM

Sequence: RLNLKTSFH
- Kd [9, 34]: 0.407 µM
- Kd [15, 34]: 1.35 µM
- Kd ([16]; source organism: Sapporo rat virus): 0.1 µM

Sequence: RVLDCRTAF
- Kd ([3]; source organism: Yellow fever virus): 0.324 µM
- Kd ([5]; source organism: Yellow fever virus 17D): 0.108 µM
- Kd [19]: ≥ 20 µM
- Kd [20]: ≥ 20 µM
- Kd [21]: 0.349 µM
- Kd [22]: ≥ 20 µM

Sequence: SLQECVKMA
- Kd [23, 33]: 0.0007 µM
- Kd [24, 33]: 0.0021 µM

- Kd [1, 35]: ≥ 20 µM
- Kd [2, 35]: ≥ 20 µM
- Kd [18, 35]: ≥ 20 µM
- Kd [4, 35]: ≥ 20 µM
- Kd [5, 35]: ≥ 20 µM
- Kd [6, 35]: ≥ 20 µM
- Kd [7, 35]: ≥ 20 µM
- Kd [8, 35]: ≥ 20 µM
- Kd [9, 35]: 2.99 µM
- Kd [11, 35]: ≥ 20 µM
- Kd [12, 35]: ≥ 20 µM
- Kd [13, 35]: 0.0607 µM
- Kd [14, 35]: ≥ 20 µM
- Kd [15, 35]: 0.127 µM
- Kd [16, 35]: 0.00023 µM
Sequence: TTRAWFDKK

Sequence: VLAEAMSQV
- Kd [25]: 0.00243 µM
- Kd [26]: 0.0131 µM
- Kd [27]: 0.00437 µM
- Kd [23, 36]: 0.0275 µM
- Kd [28]: 0.00125 µM
- Kd [29]: 0.0827 µM
- Kd [24, 36]: ≤ 0.0001 µM

Sequence: WAGIWGGKL
- Kd [1, 37]: ≥ 20 µM
- Kd [2, 37]: ≥ 20 µM
- Kd [3, 37]: 0.342 µM
- Kd [4, 37]: 13 µM
- Kd [5, 37]: ≥ 20 µM
- Kd [6, 37]: ≥ 20 µM
- Kd [7, 37]: ≥ 20 µM
- Kd [8, 37]: ≥ 20 µM
- Kd [9, 37]: ≥ 20 µM
- Kd [10, 37]: ≥ 20 µM
- Kd [11, 37]: ≥ 20 µM
- Kd [12, 37]: 0.242 µM
- Kd [13, 37]: ≥ 20 µM
- Kd [14, 37]: ≥ 20 µM
- Kd [15, 37]: ≥ 20 µM
